We go through 19 sequences from a protein production outcome set (Wang et al. 2014).

A short description of this series: label from the status in PepcDB records.
Regarding “MLTMQEIKAHYRFTDEDAELLGSLFPLAETNKERLADQFYDYLLGIPETAEFLKEDLVLQKLKQTHQDWFVSLFAGSYDNRYIHNLQKIGHAHVRVGLNAHYVNVAMNVVRQFTLSIIQDNFPDPEERRQRREAVEKILDINLDIMSASYREEEMRKFFVSHRLESKLITATERFTYGLNLILVLALAGVSVSVVGLFIWDIGHIFQGSVEKGILSALGSLLILWMMIELIENEIKILKGGRFNILFFIGVIIVALIREILISTLRHDPLTTQVFLAGTLLVLGVVYFLVSKSQQPYTPH”, the protein production result is recorded as “failed”. With “MLTNGMKYHEKLVDESSRNILFIGQDRISGLYDTIGILSIDRKNKKLKIIMIPRDLYIDYSSRVKHYLEENGRLNDPDFYKINAAHLIGPYMKYEGKFGAYSMNFLAELIKEIFDIEVHDYVRVNTEGFVQIVDLFGGVDINVPYDMHYDDIYQDLHIHINKGWNHLDGKKAEGFVRYRQSNDEMGNITHSIGDYERKKNQINFIKAFIEQHGTMSNIDKLPSLISTLNKYMKHSIGVGDVLTTYIGYAKDVVLYKYPIETYTVTGKDKYMNQRYYIVIENDNKTSKVVDLEHHHHHH”, the protein production entry was “failed”. For “MLTPLQIYFPIGVVLLVAVVLAFTMLGLANVLGPRRPSLVKQTPFECGSEPIGSARERFGVKFYVVALLFIVFDIEAIFLYPWAVLLLPDGQGYPGLGWPGFISMGIFVFTLVAGLVYVWKKGVLDWAD”, the protein production result is “failed”. To “MLTQGNFDVLPVGDGAKRAQTVQPTVKLRIETIGVPRISDENGRNLTPVGSRNRVIPVILALSPRMTVGRRWLEALLWSDRGPDQASGSLRQALSSIRRQLGDARDILCANRTDIWMTSKDVTIDLLDDQQGVLQRLRAGRDFLEGIDILSEGFEDWLRQERASLLQMAEVELPARALPARLHATEAERPLSWTQEPPRFFLDQDLGLESDKLERFLTDAISTQLTQTVKSHFRADVRALDGTLTPVIVTPGARFAIRVTRINKAFAVLARMTEEPAGRLFWSRQLFIDSRETESMMDTAAALATEASEAMGARSFVASPAQQANVLAAEALADVFSFDPDRLRKAIRTLGRANDIDPHAPRPALKALALAFLALETRNTDRDHLIGEVTDLIRQSRALDSRNALALSFLADVQDLVFEDPQTALSYAKSALRSNPGIGYAYASLGALELRRGAAEAALIAASRAQRQLANSSLEVFSLMRLCVANLTAKDFDAAEQAAQRAAELAPTSQPPLRHLYALRLRRKDYAAARQTLRALRRLDPLFSMQYLRENPEFPAATIRTMQLHKLMDVELG” belongs “failed”; to “MLTQYRQAQEDILRGRVKVRVVGQDKGGGVVMGEGVEIAPGARIEGPVLIGGACHIATGAVVGPFTVLGPYTRVEEGATVRRSVLWDNVYTGEGANVRGLEHHHHHH”, “not failed”; to “MLTTQGVPEFCYITIIGLILFMIFKEVLSQSKFWRKDLESSSNMVILPLLISFSAIVAYKIAEIL”, “failed”. The result for “MLVAAACFTIMNVLIKEASAKFALGSGELVFWRMLFSTVALGAAAVLRRDTFRTPHWKNHLNRSMVGTGAMLLLFYAVTHLPLATGVTLSYTSSIFLAVFSFLILKERISVYTQAVLLLGFAGVVLLLNPSFRSGQETAALAGLAGGAMSGWAYLKVRELSLAGEPGWRVVFYLSVTGVAMSSVWATLTGWHTLSFPSAVYLSCIGVSALIAQLSMTRAYKVGDKFTVASLSYMTVVFSALSAAFFLGEELFWQEILGMCIIILSGILSSIRPTAFKQRLQSLFRQR” reads “failed”. With “MLVKFWGVRGSLPAPLTPAQVQSKIAAVVQRITLKDIESQDSRERFLASLPKWLFGTIGSNTACVEVETDDGGHLIFDAGTGIRELGIDLMKRPDYGKNTTYHLFFSHFHWDHIQGLPFFNPAYDPRNKIIVYSTRKKAKEFLEDQMKYPYFPISMLGEDGFGASFEFKYIEPDQKYVEIGDTKIGWHRVRHPGGCTAYSVIEKGKKIIYSTDTELRPRDFERNEQNAEFYTDAEMLIIDAQYTLTDSILKEGWGHSTFSVAIDFAAGWNIKSIALFHHEPTYHDKKVFSLKQTADWYRDCSRAPDIKIFIAQEGRSFLI”, the protein production entry is on record as “failed”. Turning to “MLVLILSSGVSVAIATETNDLSIAAVLISPSDVVFAKEANTIVVYGITNSGTENLTNITVDVYASDVSGTVPVNTETISSLAGGGTTTIFITDPTIRDLQGSTVTYTAVIDPDNLIPETNEANNNRSSAAVPVRYNGYKGKRYWEGASDITTKHTYDFNGDVSSSSQPSTSYRSQGAWSNGRTETWGGSVPNPDLPSGSTIEQALLYVAYNWDETPGGYPWWNVSFNNVIIDYGNISTGNGILYTDMSNFGLYADYEYGLVVYDVTNLYNSTDYNGLKMYPYNSTFADLTALYPSTLVIIYQNPNMTRKQIFINEECDELGVSESTYGTTPEEATAYAPFTGMSIDVSNVSNATLYSFAGSAGPDEGNLLFNGNTVATNAWHGDAYTASASVFDVKNYINSTGNEAGIQGTVSGGMDVLQQILVVEYVESVPSALDANLTANVTSGTAPLTVQFTDLSEGNVTNWLWDFGDNTNSTSQNVSHTYNSPGTYTVNLTVTGPEGSDSEVKTDFITVSDSNVSAPVAAFTATPLVGTAPLQVAFTDQSTNSPTEWKWEYNNGSGWVEFSNETNASYSFATAVPYDIQLTVSNSGGSDDETKLHYISVGNVREPLNTVQSGTVSGDLYISSPTTWPATEVNQTFTLPAAAVGNIQWAKLYVNTYSGSAANTYALSSTVKLDGDGDSTYESTLGTETMDIASLTNGASFPLNDHVNKVYSDYEAQYDVTSLISAANPAINVKSEAISGKNFDGRIKGVTLVVAYNNTSSTDQTYYWVNHGGDWSSPANGNTIFDTSGLSSGWVSAESKIRYFSYSDANYTFNGVAKTGSTPSNYSGLNTWDVTDNITAGQSSTLAYSKGSGSYKTTLATLKVKYETPGFSNKVTLGDTSPVSPTLASLNGRLYLAWKGDGNNNLNVMYSADNGMTFGNKYTSSETSPESPALCVHNNSLYIAWKGNGSNYLNVAQVTMNGDNITDFSNKVTLGDTSPVSPALASLNGRLYLAWKGDGNNNLNVMYSADNGMTFGNKYTSSETSPESPALCVHNNSLYIAWKGNGNNYLNVAQVTMNGDNITDFSNKVTLGDTSPVSPALASLNGRLYLAWKGDGNNNLNVMYSADNGMTFGNKYTSPETSPESPALCVHNNSLYIAWKGDGNNNLNVAQVI”, the protein production entry is recorded as “failed”. Take “MLVNRIISATVAGLVAVVIGFASSVALIYQTVINLGGDASLASSWILTLGLSMGITSIALSFYYRVPILIAWSTPGAALLIANTQNFNLNEAIAGFMFSALLIFLCGITGWFEKLINKLPFQLASAMLGGILVNFGIDVFNQMNKAPLLVIVMFFTYLVCRQLMPKFTMLFVLIISVVLAWQLKLMTFTAFSWQLSEFTYISPEFNMSAVLGIGIPLFLVTMAAQNLPGIAVLKAHNYKAPVSSILSVTGFVNMLAAPFGGYAINLAAITAAICMTKDVDKDPKKRYWAGISGGGFYILMAISAGYLMQAFASLPNALIYSLAGMALFTTINSSIQQALSDDKMSEAAIITFLVTASNLSLWDISSVLWGLIAGSITLMTQSLLNRSNDKLC”: the protein production result was “failed”. To “MLVSEMHGEVEAVKVGTEVQGRVLHWVYLYYYRNLLFDAGCPNTAQEVFEHFKGREIKAVLITHYHEDHIGAVNLFKEITDVYVPEESLEILRNPPDIPKYRKIGWGQPEKIEGVKVAKEVMKFDDVEVRMIKTPGHSFDHVSYLVDDKLFCGDLVINTAQMVCMREENLLKTIESIEKVLKYDFNYAYTGVGVASRDEVVEYLNYLKGLKEKAEMLYAEGKTIDEIVAACFPNPSQKAILMEFVSEKEWARENMVKSLLGLPRE” belongs “failed”; to “MLVSPDTPRFLAARLLLGAWLACGAGAQAQTLLDTSAAIGVQNTLNQIQPGVTQVPGSLSVQFDACKMAPESCKDGQPIGAAPAPATSGQSAQNAQSAQPAPSQVAPAAPTTPTQTTPTPAGEAPATRPVPTVVPLTAEQQQLLQAAQAQFAAGRYPQARNEFEALIVRNYNNPEPHFGLGLALYQLGDLRGATFEFGQFMQFAPQRYEGPYNLGVIATREGRYPDALRLYGEALTLAQSAPPAARQVLLRALATEQGRVKDYVALAATYADLRAADPENVEYIFRHAQALYQAGQVADALPVTYAVLERKPSSLQAALLLADLYVAQGLPDRAVRELSAAAARVLTGTDRATLLLRQSDLLLAQNNLRGALNAASEARQEDRRLPAAIIREAELLAQFGQRPAAVRAYRDALALTPKSAPIQAALAALYLEGNQYPEAAQAAQQALKLTPDASTRARALYVQGVVAYRQGQYTQARTALNSSVLAVPDADSLLWLGLSYYALKDYASAVPVLSESVRLRPTPAARQNLAAALLATARYAEAEALLRGLVTDEVKNAEGWYLLGLSQRAQQRPDDARQSFKTAAGLGSARAKDALK”, “failed”. To “MLVTVMIPTYNQKDYVGSAIESALAQTYADLEIVVADDASPDPGVAKVLERYRNHPKVRLYRNAQNLGRVANYRKTLYERARGEWVINLDGDDYLVDPCFVEDAVGVVKKHPDIVAVLGGRKVLQASGTHKVQQANVCLSGRVAPRDVFSGILDGTLFPYHNATLYSRTHALAIGFYEQDIVSSDLESFLRLFARGAVGVLPRIVGVWREHSGNTSGTMAFSDYLANIQVFESVMHTAEEPDIAVKSSFLKSWSSRYAYSKGKDYAYRLLKDSDSPSLCFGYLKRLSKVSSVAALRILIQPKVLFNLLARALPSQISRCFR” belongs “failed”; to “MLWFAMSSVLRVRPTKIELIRLKRRKALAEKVHRILRERLTILVNEFLVRVREAYSLRRTVNDLVFNLYNDSVLLNSVYGEYGFQYFRSITVEGLRAVIGVENIMGVKTRSAVVKHSKTIEYVYPGFDSFRDGARKLIEAIIELGRAEQALIALGREIERTKRKVNALKYIIIPRLANTIRYLNMKFEEREREEKARLKRIKSVLEKRR”, “failed”. To “MLWFGQPGPGGWNRKCLRPFTLPRGQHPQPSYGFPQVNEVVFSPGESHCATCSEDGSVRVWALASMELVIQFQVLNQSCLCLAWSPPCCGRPEQQRLAAGYGDGSLRIFSVSRTAMELKMHPHPVALTTVAFSTDGQTVLSGDKDGLVAVSHPCTGTTFRVLSDHQGAPISTICVTCKETQGHLPPSLAAFCPWDGALLMYVGPGVYKEVIIYNLCQKQVVEKIPLPFFAMSLSLSPGTHLLAVGFAECMLRLVDCAMGTAQDFAGHDNAVHLCRFTPSARLLFTAARNEILVWEVPGL” belongs “failed”; to “MLWSFIAVCFSAWLYVDASYRGPAWRRWVFKPVTLILLLLLAWQAPMFNAISYLVLAGLCASLLGDALTLLPRQRVMYAVGAFFLSHLLYTIWFASQLTLSFFWPLPLVLLVFGALLMAVIWSRLEEMKMPVLTFIGMTLVMVWLAGELWFARPTNTALSGFAGAALLLLSNAVWLVSHYRRRFRADNAIAAAFYFAGHFLIVRALYL”, “failed”; to “MLYFIPTPIGNLSDISFRALELLKTCDLVFCEDTRVSKSLISLLNTKFHTDIHISKFIALHSHNEKEVLASIDLKIFEKNVAYLSDAGMPGISDPGKALVEFAQENNITYEILPGA”, “not failed”.

For the sequence “MLYHKLGYVQSAQQTLREVMTIWQAWFKALKAYRKNPARFTGRPRMPRYLHKSQRHTFYVTNQNAQIVRKDEQDKGYLVIKKLGIKIKLASADIKKIGRVAFKPVANGYKVIVPYKTKQKIKYLPDNGKYLGIDPGIDNAFACVSNTGARPLLINGRGIKSVNQYYNKKRSELKRLQAKYHQLEKLISTKQGLKPVYQETKAMKRITAWRNDKIRQFAHKASKRIVDYALSCDANTIVIGKNKSWKRSFEMGKRNNQNFIGIPHQVMIDMIKYKANLAGITVIQTNESYTSQISALDHEQPCWNNGNKSRKKQRKSPVNRRIKRGLFKADNGTLINADINGALQIIKKVFPNFSLDDGIVGAVLRPFKWSPTI”, the protein production result was “failed”.

For the sequence “MLYIFLLPIIGLALAFIINKIFPRAQFRGYDVLPFFFIAACSLITLHINRPSFLPYGFLLYFILVIVVSLSDAIRNKNISLGKTIRKLWDYLAACTCFWYLGLLIMMFL”, the protein production result is listed as “failed”.
